Results taken from patent US20250367288A1, “DELIVERY OF MULTI-CYTOKINE SIGNALS BY OVEREXPRESSION OF WILD-TYPE OR MUTANT SIGNAL TRANSDUCTION MOLECULES” (THE TRUSTEES OF THE UNIVERSITY OF PENNSYLVANIA, priority 2021, published 2025).

Assays:
T cells expressing TPOR = test: Stimulation of T cells expressing TPOR for 7 days; cell number and percent transgenic cells by flow cytometry; format: cell-based, human; conditions: 0.1 μg/ml; for TPOR fraction after addition of agonist: enriched from 12.9% without addition
Protocol: (§1) FIG. 12: T cells transduced to express (i) the thrombopoietin receptor (TPOR) or (ii) the GCF receptor with a deletion at aa 715 (GCSFRd715) are active and can drive T cell proliferation via the non-canonical JAK2 pathway. T cells expressing GCSFRd715, TPOR, or the truncated NGFR as a control were stimulated for 7 days with IL-2/IL-7/IL-15 (all at 5 ng/ml; denoted as CK; positive control condition), 0.1 μg/ml recombinant thrombopoietin (TPO), 0.1 μg/ml TPO agonist eltrombopag (EP), or 0.1 μg/ml GCSF. Cell number (top) or percent transgenic cells (bottom) were quantified using flow cytometry at 7 days.
(§2) FIG. 13: Exemplary flow cytometry plots showing that exposure of transgenic cytokine receptor transduced cells to the cognate cytokine (i.e. GCSFRd715 to GCSF; TPOR to TPO or EP) leads to enrichment of CAR expressing cells at 7 days. Addition of GCSF enriched the GCSRFd715 transgenic cell fraction from 15.6% to 64.9% (top panel). Addition of TPO enriched the TPOR fraction from 12.9% to 82% and addition of EP enriched the TPOR fraction from 12.9% to 55.9% (bottom panel).
(§3) Healthy donor T cells were transduced to express (i) the thrombopoietin receptor (TPOR) or (ii) the GCF receptor with a deletion at aa 715 (GCSFRd715). T cells expressing GCSFRd715, TPOR, or the truncated NGFR as a control were stimulated for 7 days with IL-2/IL-7/IL-15 (all at 5 ng/ml; denoted as CK; positive control condition), 0.1 μg/ml recombinant thrombopoietin (TPO), 0.1 μg/ml TPO agonist eltrombopag (EP), or 0.1 μg/ml GCSF. Cell number (FIG. 12, top) or percent transgenic cells (FIG. 12, bottom) were quantified using flow cytometry at 7 days.

[1] = target: GCF receptor with a deletion at aa 715 (GCSFRd715) (UniProt Q99062); test: cell-based or functional assay
Chain of UniProt Q99062 (Q99062 25-738 limits assumed, stated change not applied): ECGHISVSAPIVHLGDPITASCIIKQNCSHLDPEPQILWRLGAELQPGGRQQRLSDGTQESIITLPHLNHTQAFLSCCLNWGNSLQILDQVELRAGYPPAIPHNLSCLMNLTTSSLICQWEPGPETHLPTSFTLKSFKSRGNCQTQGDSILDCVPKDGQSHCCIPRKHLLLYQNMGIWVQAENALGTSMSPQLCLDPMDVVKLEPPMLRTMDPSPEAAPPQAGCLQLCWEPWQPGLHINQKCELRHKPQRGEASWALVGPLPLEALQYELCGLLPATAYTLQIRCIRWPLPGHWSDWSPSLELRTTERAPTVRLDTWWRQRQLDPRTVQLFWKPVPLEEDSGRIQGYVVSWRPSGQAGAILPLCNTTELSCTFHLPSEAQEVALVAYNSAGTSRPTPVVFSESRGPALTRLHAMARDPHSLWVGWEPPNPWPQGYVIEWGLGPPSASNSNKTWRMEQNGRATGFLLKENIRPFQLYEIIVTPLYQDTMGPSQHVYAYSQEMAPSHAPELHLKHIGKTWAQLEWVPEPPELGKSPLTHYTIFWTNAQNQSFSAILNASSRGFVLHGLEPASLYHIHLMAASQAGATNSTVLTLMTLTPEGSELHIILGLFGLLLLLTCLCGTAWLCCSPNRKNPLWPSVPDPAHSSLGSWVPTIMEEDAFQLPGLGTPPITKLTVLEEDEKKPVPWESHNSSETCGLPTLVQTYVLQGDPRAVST

[2] = system: T cells expressing the truncated NGFR; test: Stimulation of negative control T cells expressing truncated NGFR for 7 days; flow cytometry; format: cell-based, human; conditions: 0.1 μg/ml
Protocol: as §1, §3

TPOR = test: Phosphorylation of STAT3 and STAT5 in TPOR expressing T cells after 24 hours stimulation, flow cytometry; format: cell-based, human; conditions: 0.1 μg/ml
Protocol: (§4) FIG. 14: TPOR stimulation leads to activation of STAT3 and STAT5. Healthy donor T cells expressing TPOR or untransduced control T cells were stimulated for 24 hours with 5 ng/ml IL-2/IL-7/IL-15 (CK), 0.1 μg/ml TPO or 0.1 μg/ml Eltrombopag (EP). Following stimulation cells were fixed and the phosphorylation of STAT3 and STAT5 quantified using flow cytometry.
as §4, with “TPOR” for “FIG. 14: TPOR”, “stimulation led” for “stimulation leads”, “and STAT5 (FIG. 14).” for “and STAT5.”, “μg/ml TPO,” for “μg/ml TPO”

[3] = target: thrombopoietin receptor (TPOR) (UniProt P40238); test: cell-based or functional assay
[4] = system: T cells expressing GCSFRd715; test: Stimulation of T cells expressing GCSFRd715 for 7 days; cell number and percent transgenic cells by flow cytometry; format: cell-based, human; conditions: 0.1 μg/ml
Protocol: as §1, §2
Healthy donor T cells were transduced to express (i) the thrombopoietin receptor (TPOR) or (ii) the GCF receptor with a deletion at aa 715 (GCSFRd715). […] Cell number (FIG. 12, top) or percent transgenic cells (FIG. 12, bottom) were quantified using flow cytometry at 7 days.

G-CSFR = test: Enrichment of G-CSFR transgenic T cells upon administration of G-CSF; format: cell-based; conditions: primary human T cells expressing G-CSFR
Text: FIG. 7: Strong and specific enrichment of transgenic cells upon administration of G-CSF.
Ectopic expression of a myeloid cytokine receptor (G-CSFR) can be used to modulate CAR-T proliferation, and these T cells could then be inhibited by JAK2 inhibitors (e.g., FDA-approved JAK2 inhibitors such as ruxolitinib and others) (FIG. 6). […] The G-CSF receptor can be further modified to mediate downstream signaling that is normally associated with the T cell activating cytokine IL2 (chimeric G-CSF receptor) (FIG. 8). A pTRPE construct was used for the overexpression of G-CSFR IL2Rβ/IL2RG cytokine receptor (FIG. 9). The HEK IL2 Blue reporter cell line receptor (www.invivogen.com/hek-blue-il2) was used for screening the synthetic cytokine.

Row | Molecule | TPOR fraction after addition of agonist (T cells expressing TPOR) [%] | Response of negative control cells (NGFR) to stimulation [2] | Response of TPOR cells to stimulation (cell number) (T cells expressing TPOR) | also measured
1 | CC1=NN(c2ccc(C)c(C)c2)C(=O)/C1=N\Nc1cccc(-c2cccc(C(=O)O)c2)c1O [EP, eltrombopag, reference compound] | 55.9 |  |  | 
2 | GCSF (from UniProt P09919 31-204) (ligand) |  |  |  | percent transgenic cells by flow cytometry after 7 days [1]: 64.9%
3 | TPO: recombinant thrombopoietin | 82 | did not respond | responded | STAT5 and STAT3 phosphorylation in TPOR expressing T cells (TPOR): leads to STAT5 and STAT3 phosphorylation
4 | recombinant thrombopoietin (TPO) (from UniProt P40225 22-353) (ligand) |  |  |  | percent transgenic cells by flow cytometry after 7 days [3]: 82%
5 | GCSF: cognate cytokine of the G-CSF receptor, used at 0.1 μg/ml (protein) TPLGPASSLPQSFLLKCLEQVRKIQGDGAALQEKLCATYKLCHPEELVLLGHSLGIPWAPLSSCPSQALQLAGCLSQLHSGLFLYQGLLQALEGISPELGPTLDTLQLDVADFATTIWQQMEELGMAPALQPTQGAMPAFASAFQRRAGGVLVASHLQSFLEVSYRVLRHLAQP |  | did not respond | not | Response of GCSFRd715 cells to stimulation (cell number) [4]: responded; GCSRFd715 transgenic cell fraction after addition of cytokine ([4]; enriched from 15.6% without addition): 64.9%; Enrichment of transgenic cells upon administration of G-CSF (G-CSFR): Strong enrichment
